Results: the supplement of paper PMC10567573

B1: KRT18 (parent)
chain: KSQDLAKIMADIRAQYDELARKNR
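Note: lentivirally expressed fusions sorted by FACS into six bins by GFP to DsRed ratio, PSI derived from sequencing read proportions per bin multiplied by bin number.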

Variants of: B1
Test: protein stability index of a GFP-peptide fusion (GPS, HEK-293T) (PSI 1-6); higher = more stable
Conditions: c terminus: a fixed tail appended
For KSQDLAIIMADIRAQYDELARKNR, the protein stability index was 2.16. With KSQDLAPIMADIRAQYDELARKNR the protein stability index was 3.88. Work on KSQDLATIMADIRAQYDELARKNR yielded a protein stability index of 2.67. With KSQDLAVIMADIRAQYDELARKNR the protein stability index was 3.32. For KSQDLAGIMADIRAQYDELARKNR, the protein stability index was 3.14. Work on KSQDLAWIMADIRAQYDELARKNR yielded a protein stability index of 2.14. For KSQDLAMIMADIRAQYDELARKNR, the protein stability index was 2.48. For KSQDLAFIMADIRAQYDELARKNR, the protein stability index was 1.9. Variant KSQDLALIMADIRAQYDELARKNR has a protein stability index of 2.37. With KSQDLASIMADIRAQYDELARKNR the protein stability index was 2.46. KSQDLANIMADIRAQYDELARKNR gave a protein stability index of 2.86. In the case of KSQDLADIMADIRAQYDELARKNR, the protein stability index is reported as 2.76. KSQDLAKIMADIRAQYDPLARKNR showed a protein stability index of 2.8. Variant KSQDLAKIMADIRAQYDALARKNR has a protein stability index of 2.59. In the case of KSQDLAKIMADIRAQYDCLARKNR, the protein stability index is reported as 2.45. Work on KSQDLAKIMADIRAQYDGLARKNR yielded a protein stability index of 2.66. For KSQDLAKIMADIRAQYDHLARKNR, the protein stability index was 2.76. For KSQDLAKIMADIRAQYDWLARKNR, the protein stability index was 1.96. For ISQDLAKIMADIRAQYDELARKNR, the protein stability index was 2.91. For ESQDLAKIMADIRAQYDELARKNR, the protein stability index was 2.41. With NSQDLAKIMADIRAQYDELARKNR the protein stability index was 2.6. Work on QSQDLAKIMADIRAQYDELARKNR yielded a protein stability index of 2.9. Variant DSQDLAKIMADIRAQYDELARKNR has a protein stability index of 2.05. Work on CSQDLAKIMADIRAQYDELARKNR yielded a protein stability index of 2.51. With VSQDLAKIMADIRAQYDELARKNR the protein stability index was 2.71. ASQDLAKIMADIRAQYDELARKNR showed a protein stability index of 2.58. HSQDLAKIMADIRAQYDELARKNR showed a protein stability index of 2.58. For SSQDLAKIMADIRAQYDELARKNR, the protein stability index was 2.58. In the case of KSQDLAKIMADIRAVYDELARKNR, the protein stability index is reported as 2.06. In the case of KSQDLAKIMADIRASYDELARKNR, the protein stability index is reported as 2.57. For KSQDLAKIMADIRAMYDELARKNR, the protein stability index was 2.14. KSQDLAKIMADIRAEYDELARKNR gave a protein stability index of 2.01. KSQDLAKIMADIRAIYDELARKNR showed a protein stability index of 1.96. Work on KSQDLAKIMADIRACYDELARKNR yielded a protein stability index of 2.37. In the case of KSQDLLKIMADIRAQYDELARKNR, the protein stability index is reported as 2.65. Variant KSQDLHKIMADIRAQYDELARKNR has a protein stability index of 2.71. KSQDLEKIMADIRAQYDELARKNR showed a protein stability index of 2.78. Variant KSQDLRKIMADIRAQYDELARKNR has a protein stability index of 2.54. In the case of KSQDLGKIMADIRAQYDELARKNR, the protein stability index is reported as 3.31. With KSQDLWKIMADIRAQYDELARKNR the protein stability index was 1.98. KSQDLNKIMADIRAQYDELARKNR gave a protein stability index of 3.01. For KSQDLSKIMADIRAQYDELARKNR, the protein stability index was 3.04. For KSQDLTKIMADIRAQYDELARKNR, the protein stability index was 2.94. KSQDLPKIMADIRAQYDELARKNR showed a protein stability index of 3.61. Variant KSQDLYKIMADIRAQYDELARKNR has a protein stability index of 2.33. KSQDLAKINADIRAQYDELARKNR showed a protein stability index of 4.11. In the case of KSQDLAKIFADIRAQYDELARKNR, the protein stability index is reported as 2.77. For KSQDLAKISADIRAQYDELARKNR, the protein stability index was 3.89. Variant KSQDLAKITADIRAQYDELARKNR has a protein stability index of 3.66. Variant KSQDLAKILADIRAQYDELARKNR has a protein stability index of 2.23. Work on KSQDLAKIRADIRAQYDELARKNR yielded a protein stability index of 3.8. In the case of KSQDLAKIQADIRAQYDELARKNR, the protein stability index is reported as 3.64. KSQDLAKIVADIRAQYDELARKNR showed a protein stability index of 2.73. With KSQDLAKIMWDIRAQYDELARKNR the protein stability index was 2.54. KSQDLAKIMLDIRAQYDELARKNR showed a protein stability index of 2.68. In the case of KSQDLAKIMCDIRAQYDELARKNR, the protein stability index is reported as 2.91. KSQDLAKIMGDIRAQYDELARKNR gave a protein stability index of 3.81. Variant KSQDLAKIMDDIRAQYDELARKNR has a protein stability index of 2.57. For KSQDLAKIMTDIRAQYDELARKNR, the protein stability index was 3.02. For KSQDLAKIMEDIRAQYDELARKNR, the protein stability index was 3.18. Variant KSQDLAKIMAFIRAQYDELARKNR has a protein stability index of 1.8. Variant KSQDLAKIMAPIRAQYDELARKNR has a protein stability index of 3.56. KSQDLAKIMAAIRAQYDELARKNR gave a protein stability index of 1.86. Work on KSQDLAKIMAGIRAQYDELARKNR yielded a protein stability index of 2.12. KSQDLAKIMAWIRAQYDELARKNR showed a protein stability index of 1.88. Work on KSQDLAKIMACIRAQYDELARKNR yielded a protein stability index of 1.73. In the case of KSQDLAKIMANIRAQYDELARKNR, the protein stability index is reported as 2.84. With KSQDLAKIMALIRAQYDELARKNR the protein stability index was 1.52. For KSQDLAKIMADIRAQYDEKARKNR, the protein stability index was 3.74. In the case of KSQDLAKIMADIRAQYDEYARKNR, the protein stability index is reported as 2.73. For KSQDLAKIMADIRAQYDENARKNR, the protein stability index was 3.63. In the case of KSQDLAKIMADIRAQYDEDARKNR, the protein stability index is reported as 3.75. KSQDLAKIMADIRAQYDETARKNR showed a protein stability index of 3.58. Work on KSQDLAKIMADIRAQYDEHARKNR yielded a protein stability index of 3.39. With KSQDLAKIMADIRAQYDEAARKNR the protein stability index was 3.52. KSQDLAKIMADIRMQYDELARKNR showed a protein stability index of 2.67. Work on KSQDLAKIMADIRFQYDELARKNR yielded a protein stability index of 2.74. With KSQDLAKIMADIRHQYDELARKNR the protein stability index was 3.16. KSQDLAKIMADIRIQYDELARKNR gave a protein stability index of 3.21. With KSQDLAKIMADIRCQYDELARKNR the protein stability index was 3.05. With KSQDLAKIMADIRWQYDELARKNR the protein stability index was 1.97. With KSQDLAKIMADIRQQYDELARKNR the protein stability index was 2.14. In the case of KSQDLAKIMADIRAQYDELARCNR, the protein stability index is reported as 2.32. For KSQDLAKIMADIRAQYDELARANR, the protein stability index was 2.67. KSQDLAKIMADIRAQYDELARGNR showed a protein stability index of 3.04. In the case of KSQDLAKIMADIRAQYDELARLNR, the protein stability index is reported as 2.43. KSQDLAKIMADIRAQYDELARINR showed a protein stability index of 1.89. For KSQDLAKIMADIRAQYDELARRNR, the protein stability index was 2.79. Work on KSQDLAKIMADIRAQYDELARMNR yielded a protein stability index of 2.44. Variant KSQDLAKIMADIRAQYDELARTNR has a protein stability index of 2.45. For KSQDLAKIMADIRAQYDELARWNR, the protein stability index was 1.88. With KSQDLAKIMADIRAQYDELAGKNR the protein stability index was 3.2. For KSQDLAKIMADIRAQYDELADKNR, the protein stability index was 2.36. KSQDLAKIMADIRAQYDELAQKNR showed a protein stability index of 2.59.
